From patent publication US20260008856A1, “METHODS OF TREATING DISEASE USING ANTI-IL1RAP ANTIBODIES AND ANTIBODY DRUG CONJUGATES” (Bluefin Biomedicine, Inc., priority 2022, published 2026)

Key:
IL-1β signaling = assay: IL-1 signaling reporter cell assay (HEK-Blue IL-1β cells), IL-1β; format: cell-based; settings: HEK-Blue IL-1β cells, antibody 1-10 pg/ml, IL-1β 0.5 ng/ml
Description: (§1) HEK-Blue IL-1β cells (Invivogen, CA) were harvested and plated in technical duplicates at a density of 50,000 cells per well in a 96-well plate. IL1RAP antibodies, or a corresponding human IgG1 control antibody was added to the wells in a concentration range of […]. After incubating cells with antibodies for 30 minutes, IL-1β was added to a final concentration of 0.5 ng/ml, and the plate was incubated overnight. To examine whether any of the antibodies were able to induce IL-1R activation in the absence of IL-1β, samples were incubated with 10 μg/mL antibody without addition of the ligand. The following day, substrate was added to the supernatants, and samples were analyzed for absorbance at 620 nm.

H69 = assay: Flow cytometry binding to endogenous cell line H69; format: cell-based; design: key: (−): No binding; (+): Weak binding; (++): Moderate binding; (+++): Strong binding; settings: primary antibody 1 ug/ml
Description: (§2) Staining for flow cytometry was performed in 1× cold PBS with 0.5% BSA. Primary antibodies (1 ug/ml) were incubated with live cells on ice for 30 minutes, after a brief wash, cells were incubated with Alexa Fluro® 488-conjugated anti-human IgG secondary antibody @1:1000 (709-546-149, Jackson ImmunoResearch). Acquisition of the data was performed on a MACSQuant® Flow Cytometers (Miltenyi Biotec) and analyzed with FlowJo software.

recombinant human IL1RAP = target: T1, recombinant human IL1RAP (Homo sapiens, UniProt Q9NPH3); assay: Binding competition binning on Octet; settings: Protein A biosensors
T1 construct: MBP-IL1RAP(S21-T367)-; 8xHis (C); made in house; host or cells: CHO (ExpiCHO transient expression)
Description: Binding Competition binning: Binding competition among different antibodies was determined using a real-time, interferometry assay on an Octet Red™ instrument with Protein A-conjugated biosensors. To assess whether two antibodies competed for binding to a recombinant IL1RAP protein, the assay was performed as follows. Protein A biosensors were first submerged into wells containing 10 ug/mL of individual monoclonal antibodies for 5 minutes. Following the capture step, the biosensors were dipped briefly (15 seconds) into buffer and then any unoccupied sites on the biosensor were saturated by submerging them for 5 minutes into wells containing 100 ug/mL of an irrelevant monoclonal antibody. The Octet™ biosensors were then dipped briefly (15 seconds) in buffer before immersion for 1 minute into wells containing recombinant IL1RAP. The biosensors were dipped briefly (15 seconds) in buffer before immersion for 1 minute into wells containing a second recombinant antibody.
For the control case where the second antibody was the same as the first, there was no increase in signal, because there was no additional binding to the recombinant target.
For the control case where buffer was used instead of the first antibody, no recombinant target bound the non-quenching antibody on the biosensor and no second antibody bound the biosensor.
Selected antibodies were evaluated in pairs for their ability to simultaneously bind recombinant human IL1RAP. The analysis was performed by Octet™ loaded with Protein A Biosensors. A total of five different bins were determined as follows.

EOL-1 = assay: Flow cytometry binding to endogenous cell line EOL-1; format: cell-based, human; design: key to binding to EOL-1 by flow cytometry: (−): No binding; (+): Weak binding; (++): Moderate binding; (+++): Strong binding; settings: primary antibody 1 ug/ml
Description: as §2
(§3) Over 1,000 hits were identified that bind strongly to CHO-human IL1RAP, but not parental CHO cells. 68 clones were selected for molecular cloning. Based on unique CDR3 sequences from the heavy chain variable domain, 35 antibodies from 13 families were confirmed by binding in IL1RAP positive cell lines EOL1 and Karpas 299 (see Table 8) by flow cytometry (MACSQuant® www.miltenybiotec.com).

IL-33 signaling = IL-33 signaling reporter cell assay (HEK-Blue IL-33 cells); format: cell-based; settings: antibody 1-10 μg/ml, IL-33 0.5 ng/ml
Description: FIGS. 7A and 7B show blockage of IL-33 signaling by anti-IL1RAP antibodies. HEK-Blue IL-33 cells (Invivogen, CA) were harvested and plated in technical duplicates at a density of 50,000 cells per well in a 96-well plate. Antibodies, or a corresponding human IgG1 control antibody, was added to the wells in a serial dilution starting at 10 μg/ml (FIG. 7A), or a concentration of 1 and 10 μg/ml (FIG. 7B). After incubating cells with antibodies for 30 minutes, IL-33 was added to a final concentration of 0.5 ng/ml, and the plate was incubated overnight. 24 hours later, substrate was added to the supernatants, and samples were analyzed for absorbance at 620 nm. CBIgG1 (anti-hen egg lysozyme antibody, CrownBio™) was included as a negative control.
as §1, with “IL-33” for “IL-1β”, “plate.” for “plate. IL1RAP”, “ST2” for “IL-1R”, “IL-33,” for “IL-1β,”

Karpas 299 = assay: Flow cytometry binding to endogenous cell line Karpas 299; format: cell-based, human; design: key to binding to Karpas 299 by flow cytometry: (−): No binding; (+): Weak binding; (++): Moderate binding; (+++): Strong binding; settings: primary antibody 1 ug/ml
Description: as §2, §3

MOLT3 = assay: Flow cytometry binding to endogenous cell line MOLT3; format: cell-based; design: key: (−): No binding; (+): Weak binding; (++): Moderate binding; (+++): Strong binding; settings: primary antibody 1 ug/ml
Description: as §2

mouse IL1RAP = target: T2, mouse IL1RAP (Mus musculus, UniProt Q61730); assay: Flow cytometry binding to 293 cells expressing mouse IL1RAP; format: cell-based; settings: 1 ug/ml
T2 construct: Met1-Val570; host or cells: HEK-293T
Description: 293T cell line was purchased from American Type Culture Collection (ATCC). 293T cells expressing human, Macaca fascicularis, rat, and mouse IL1RAP were maintained in DMEM medium (Invitrogen) with 10% fetal bovine serum (FBS) (Sigma) in the presence of 2 ug/ml puromycin (Invitrogen).
as §2

T2 sequence (Q61730 21-570): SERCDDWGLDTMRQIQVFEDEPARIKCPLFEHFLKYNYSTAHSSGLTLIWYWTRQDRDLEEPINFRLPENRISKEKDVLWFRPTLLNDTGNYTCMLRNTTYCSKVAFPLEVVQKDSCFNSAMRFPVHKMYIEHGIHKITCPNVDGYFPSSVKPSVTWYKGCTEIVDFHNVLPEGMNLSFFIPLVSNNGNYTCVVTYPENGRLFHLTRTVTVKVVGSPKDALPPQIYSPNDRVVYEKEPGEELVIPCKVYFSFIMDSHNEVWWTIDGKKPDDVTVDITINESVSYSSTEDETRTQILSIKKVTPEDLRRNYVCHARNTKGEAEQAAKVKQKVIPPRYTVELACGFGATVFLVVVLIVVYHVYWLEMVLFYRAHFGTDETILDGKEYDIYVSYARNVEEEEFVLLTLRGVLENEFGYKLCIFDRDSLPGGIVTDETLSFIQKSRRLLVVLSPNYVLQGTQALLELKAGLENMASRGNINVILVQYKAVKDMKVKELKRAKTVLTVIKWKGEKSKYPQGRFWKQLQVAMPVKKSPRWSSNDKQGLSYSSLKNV

Molecule	competition for binding, bin (2) (recombinant human IL1RAP)	competition for binding, bin (3) (recombinant human IL1RAP)	competition for binding, bin (4) (recombinant human IL1RAP)	binding to 293 cells expressing mouse IL1RAP (mouse IL1RAP)	competition for binding, bin (1) (recombinant human IL1RAP)	inhibition of IL1R1 / IL-1 signaling (IL-1β signaling)	binding to H69 by flow cytometry (H69)	binding to EOL-1 by flow cytometry (EOL-1)	inhibition of IL-33 signaling (IL-33 signaling)	binding to Karpas 299 by flow cytometry (Karpas 299)	binding to MOLT3 by flow cytometry (MOLT3)
16H2_17D2: human anti-IL1RAP antibody, VH SEQ ID NO: 25, VL SEQ ID NO: 29 (antibody, V domains shown) VH: QVQLVESGGGVVQPGGSLRLSCAASGFTFSSHGMHWVRQAPGKGLEWVAVIWYDGSNKFYTDSVQGRFTISRDNSKNTLNLQMNSLRAEDTAVYYCAREGLRAGYYFDFWGQGTLVTVSS VL: DIQMTQSPSSLSASVGDRVTITCRASQRISFYSNWYQQKPGKAPKLLIYAASSLQSGVPSRFSGSGSGTDFTLTISSLQPEDFATYFCQQSHSTPLTFGGGTKLEIK	competed with each other					potent inhibition		(+++)			
10C8_15A4: human anti-IL1RAP antibody, VH SEQ ID NO: 106, VL SEQ ID NO: 108 (antibody, V domains shown) VH: EEQLLESGADLAQPGGSLRLSCAASGFTFSSYAMSWVRQAPGKGLEWVSTIRISGDTTYYADSVKGRFTISRDNSKNTLFLQMNSLRAEDTAVYYCVRDYYNGMDVWGHGTTVTVSS VL: EIVLTQSPATLSLSPGERATLSCRASQRVSSYLAWYQQKPGQAPRLLIYDASNRATGIPARFSGSGSGTDFTLTISSLEPEDFAVYYCQQRSYWPPAFGQGTKLEIK							(−)	(+++)		(+++)	
16H2_17D1: human anti-IL1RAP antibody, VH SEQ ID NO: 83, VL SEQ ID NO: 87 (antibody, V domains shown) VH: EVQLLESGADLVQPGGSLRLSCAASGFTFSSYAMSWVRQAPGKGLEWVSTIRISGGTTYYADSVKGRFTISRDNSKNTLYLQMNSLRAEDTAVYYCVRDYYNGMDVWGQGTTVTVSS VL: EIVLTQSPATLSLSPGERATLSCRASQRVSSYLAWYQQKPGQAPRLLIYDASNRATGIPARFSGSGSGTDFTLTISSLEPEDFAVYYCQQRSYWPPAFGQGTKLEIK							(−)	(+++)		(+++)	
26C5_15B4: human anti-IL1RAP antibody, VH SEQ ID NO: 96, VL SEQ ID NO: 98 (antibody, V domains shown) VH: EAQLLESGGGLVQPGGSLRLSCAASGFTFSSYAMSWVRQAPGKGLEWVSTISGSGGSTHYADSVKGRFTISRDNSKNTLYLQMNSLRAEDTAVYYCVRDYYYGMDVWGQGTTVTVSS VL: EIVLTQSPATLSLSPGERATLSCRASQSVSSYLAWYQQKPGQAPRLLIYDASNRATGIPARFSGSGSGTDFTLTISSLEPEDFAVYYCQQRSYWPPTFGQGTKLEIK							(−)	(+++)		(+++)	

More lines, main results first:

competition for binding, bin (2) (recombinant human IL1RAP)	competition for binding, bin (3) (recombinant human IL1RAP)	competition for binding, bin (4) (recombinant human IL1RAP)	binding to 293 cells expressing mouse IL1RAP (mouse IL1RAP)	competition for binding, bin (1) (recombinant human IL1RAP)	Molecule	inhibition of IL1R1 / IL-1 signaling (IL-1β signaling)	binding to H69 by flow cytometry (H69)	binding to EOL-1 by flow cytometry (EOL-1)	inhibition of IL-33 signaling (IL-33 signaling)	binding to Karpas 299 by flow cytometry (Karpas 299)	binding to MOLT3 by flow cytometry (MOLT3)
competed with each other	competed with each other				5G8_18A1: human anti-IL1RAP antibody, VH SEQ ID NO: 1, VL SEQ ID NO: 5 (antibody, V domains shown) VH: QVELQESGPGLVKPSDTLSLTCTVTGGSISTYYWSWIRQPPGKGLEWIGYIFYTGTTNYNPSLKSRVTISVDASKNQFSLKLNSVTAADTAVYYCARDGSLDYWGQGALVTVSS VL: DIQMTQSPSSLSASVGDRVTITCRASQSISNYLNWYQQKPGKAPKLLIFVASLLQSGVPSRFSGSGSGTDFTLTISSLQPEDFATYYCQQSYSTPFTFGPGTKLEIK	potent inhibition	(−)	(+++)			
	competed with each other	competed with each other			36A10_21B6: human anti-IL1RAP antibody, VH SEQ ID NO: 48, VL SEQ ID NO: 52 (antibody, V domains shown) VH: QGQVVESGGGVVQPGRSLRLSCAASGFTFSSYTLHWVRQAPGKGLEWVAVIWYDGSNKYYVDSVKGRFTISRDNSKNTLYLQMNSLRAEDTAVYYCAREYGSGSYYNVYYGMDVWGQGTTVTLSS VL: DIVMTQSPLSLPVTPGEPASISCRSSQSLLHSNGYNYLDWYLQKPGQSPHLLIYLASNRASGVPDRFSGSGSGTDFTLKISRVEAEDVGFYYCMQTLQIPLTFGGGTKVEIK	potent inhibition		(+++)	partially inhibit	(++)	(+)
			bind weakly	competed with each other	5D12_18A4: human anti-IL1RAP antibody, VH SEQ ID NO: 163, VL SEQ ID NO: 167 (antibody, V domains shown) VH: QVQLQESGPGLVKPLGTLSLTCAVSGGSISNSNWWSWVRQPPGKGLEWIGEIYHSGSTNYNPSLKSRVTIALDWSKNQFSLQLRSVTAADTAVYYCARYGSGPFGGDCWGQGTLVTVSS VL: DIQLTQSPSFLSASVGDRVTISCRASQGISSYLAWYQQKPGKAPKLLIYAASTLQGGVPSRFSGSGSGTTFTLTISSLQPEDFATYYCQQLNTYPFTFGPGTKLEIK			(+++)		(++)	
			bind weakly	competed with each other	39G1_21C4: human anti-IL1RAP antibody, VH SEQ ID NO: 56, VL SEQ ID NO: 60 (antibody, V domains shown) VH: QVQLQESGPGLVKPSETLSLTCAVSGYSASGVYYWGWIRQPPGKGLEWIGNIYHSGSTYYNPSLERRVSISLDTSKNHFSLRLNFVTAADTAVYYCARDRFDAFDIWGQGTMVTVSS VL: EIVMTQSPATLSVSPGERATLSCRASQSINNILAWYQQKPGQAPRLLIYGASTRATGIPARFSGSGSGTEFTLTISSLQSEDFAVYYCQQYNNWPLTFGGGTKVEIK	do not inhibit		(+++)	do not inhibit		(+)
